B1: Lysine-specific demethylase 5B (Homo sapiens), Q9UGL1 (parent)
chain: MEAATTLHPGPRPALPLGGPGPLGEFLPPPECPVFEPSWEEFADPFAFIHKIRPIAEQTGICKVRPPPDWQPPFACDVDKLHFTPRIQRLNELEAQTRVKLNFLDQIAKYWELQGSTLKIPHVERKILDLFQLNKLVAEEGGFAVVCKDRKWTKIATKMGFAPGKAVGSHIRGHYERILNPYNLFLSGDSLRCLQKPNLTTDTKDKEYKPHDIPQRQSVQPSETCPPARRAKRMRAEAMNIKIEPEETTEARTHNLRRRMGCPTPKCENEKEMKSSIKQEPIERKDYIVENEKEKPKSRSKKATNAVDLYVCLLCGSGNDEDRLLLCDGCDDSYHTFCLIPPLHDVPKGDWRCPKCLAQECSKPQEAFGFEQAARDYTLRTFGEMADAFKSDYFNMPVHMVPTELVEKEFWRLVSTIEEDVTVEYGADIASKEFGSGFPVRDGKIKLSPEEEEYLDSGWNLNNMPVMEQSVLAHITADICGMKLPWLYVGMCFSSFCWHIEDHWSYSINYLHWGEPKTWYGVPGYAAEQLENVMKKLAPELFVSQPDLLHQLVTIMNPNTLMTHEVPVYRTNQCAGEFVITFPRAYHSGFNQGFNFAEAVNFCTVDWLPLGRQCVEHYRLLHRYCVFSHDEMICKMASKADVLDVVVASTVQKDMAIMIEDEKALRETVRKLGVIDSERMDFELLPDDERQCVKCKTTCFMSAISCSCKPGLLVCLHHVKELCSCPPYKYKLRYRYTLDDLYPMMNALKLRAESYNEWALNVNEALEAKINKKKSLVSFKALIEESEMKKFPDNDLLRHLRLVTQDAEKCASVAQQLLNGKRQTRYRSGGGKSQNQLTVNELRQFVTQLYALPCVLSQTPLLKDLLNRVEDFQQHSQKLLSEETPSAAELQDLLDVSFEFDVELPQLAEMRIRLEQARWLEEVQQACLDPSSLTLDDMRRLIDLGVGLAPYSAVEKAMARLQELLTVSEHWDDKAKSLLKARPRHSLNSLATAVKEIEEIPAYLPNGAALKDSVQRARDWLQDVEGLQAGGRVPVLDTLIELVTRGRSIPVHLNSLPRLETLVAEVQAWKECAVNTFLTENSPYSLLEVLCPRCDIGLLGLKRKQRKLKEPLPNGKKKSTKLESLSDLERALTESKETASAMATLGEARLREMEALQSLRLANEGKLLSPLQDVDIKICLCQKAPAAPMIQCELCRDAFHTSCVAVPSISQGLRIWLCPHCRRSEKPPLEKILPLLASLQRIRVRLPEGDALRYMIERTVNWQHRAQQLLSSGNLKFVQDRVGSGLLYSRWQASAGQVSDTNKVSQPPGTTSFSLPDDWDNRTSYLHSPFSTGRSCIPLHGVSPEVNELLMEAQLLQVSLPEIQELYQTLLAKPSPAQQTDRSSPVRPSSEKNDCCRGKRDGINSLERKLKRRLEREGLSSERWERVKKMRTPKKKKIKLSHPKDMNNFKLERERSYELVRSAETHSLPSDTSYSEQEDSEDEDAICPAVSCLQPEGDEVDWVQCDGSCNQWFHQVCVGVSPEMAEKEDYICVRCTVKDAPSRK
partner: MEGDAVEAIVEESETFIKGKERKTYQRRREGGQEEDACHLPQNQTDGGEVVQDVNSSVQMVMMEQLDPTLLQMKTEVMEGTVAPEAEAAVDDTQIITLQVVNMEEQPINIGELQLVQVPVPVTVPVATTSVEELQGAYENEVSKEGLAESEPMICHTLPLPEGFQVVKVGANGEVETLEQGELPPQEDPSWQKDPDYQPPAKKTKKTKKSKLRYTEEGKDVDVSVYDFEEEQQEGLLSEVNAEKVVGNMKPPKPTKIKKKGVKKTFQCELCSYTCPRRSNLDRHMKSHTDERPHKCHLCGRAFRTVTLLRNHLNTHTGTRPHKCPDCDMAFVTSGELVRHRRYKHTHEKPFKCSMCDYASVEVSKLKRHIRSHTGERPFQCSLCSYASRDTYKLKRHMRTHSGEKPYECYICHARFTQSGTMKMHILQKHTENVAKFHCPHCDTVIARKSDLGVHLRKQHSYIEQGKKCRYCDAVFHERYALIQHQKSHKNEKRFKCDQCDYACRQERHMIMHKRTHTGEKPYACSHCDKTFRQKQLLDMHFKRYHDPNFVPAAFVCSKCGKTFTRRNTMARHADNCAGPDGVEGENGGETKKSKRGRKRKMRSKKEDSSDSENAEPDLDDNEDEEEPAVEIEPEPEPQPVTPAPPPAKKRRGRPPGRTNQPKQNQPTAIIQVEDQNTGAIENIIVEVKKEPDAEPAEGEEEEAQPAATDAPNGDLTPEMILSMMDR

In the test the parent is B1. Conditions: with ctcf_human CTCF.
With K1435R, the “effect of a mutation on the interaction” value is listed as “decreasing interaction strength”.

For the origin of these results see IntAct's records for PubMed 24937458.
